Measurements from the supplement of paper PMC11246515.
± gives the standard deviation of the averaged measurements.

Assay: total protein half-life in vivo (active degradation + dilution); higher = more stable protein
[1] = E. coli NCM3722 delta-clpP delta-lon delta-hslV, growth: N-lim chemostat, doubling time 6 h
[2] = wild type E. coli NCM3722, growth: C-lim chemostat, doubling time 12 h
[3] = E. coli NCM3722 delta-clpP, growth: N-lim chemostat, doubling time 6 h
[4] = E. coli NCM3722 delta-hslV, growth: N-lim chemostat, doubling time 6 h
[5] = E. coli NCM3722 delta-lon, growth: N-lim chemostat, doubling time 6 h
[6] = E. coli NCM3722 delta-smpB, growth: N-lim chemostat, doubling time 6 h
[7] = wild type E. coli NCM3722, growth: C-lim chemostat, doubling time 3 h
[8] = wild type E. coli NCM3722, growth: C-lim chemostat, doubling time 6 h
[9] = wild type E. coli NCM3722, growth: N-lim chemostat, doubling time 6 h
[10] = wild type E. coli NCM3722, growth: N-lim chemostat, doubling time 12 h
[11] = wild type E. coli NCM3722, growth: P-lim chemostat, doubling time 6 h
[12] = wild type E. coli NCM3722, growth: P-lim chemostat, doubling time 12 h

Sequence	total protein half-life in vivo [1] [h]	total protein half-life in vivo [2] [h]	total protein half-life in vivo [3] [h]	total protein half-life in vivo [4] [h]	total protein half-life in vivo [5] [h]	total protein half-life in vivo [6] [h]	total protein half-life in vivo [7] [h]	total protein half-life in vivo [8] [h]	total protein half-life in vivo [9] [h]	total protein half-life in vivo [10] [h]	total protein half-life in vivo [11] [h]	total protein half-life in vivo [12] [h]
MNQQDIEQVVKAVLLKMQSSDTPSAAVHEMGVFASLDDAVAAAKVAQQGLKSVAMRQLAIAAIREAGEKHARDLAELAVSETGMGRVEDKFAKNVAQARGTPGVECLSPQVLTGDNGLTLIENAPWGVVASVTPSTNPAATVINNAISLIAAGNSVIFAPHPAAKKVSQRAITLLNQAIVAAGGPENLLVTVANPDIETAQRLFKFPGIGLLVVTGGEAVVEAARKHTNKRLIAAGAGNPPVVVDETADLARAAQSIVKGASFDNNIICADEKVLIVVDSVADELMRLMEGQHAVKLTAEQAQQLQPVLLKNIDERGKGTVSRDWVGRDAGKIAAAIGLKVPQETRLLFVETTAEHPFAVTELMMPVLPVVRVANVADAIALAVKLEGGCHHTAAMHSRNIENMNQMANAIDTSIFVKNGPCIAGLGLGGEGWTTMTITTPTGEGVTSARTFVRLRRCVLVDAFRIV	5.64 ± 1.3											
MNRFIMANSQQCLGCHACEIACVMAHNDEQHVLSQHHFHPRITVIKHQQQRSAVTCHHCEDAPCARSCPNGAISHVDDSIQVNQQKCIGCKSCVVACPFGTMQIVLTPVAAGKVKATAHKCDLCAGRENGPACVENCPADALQLVTDVALSGMAKSRRLRTARQEHQPWHASTAAQEMPVMSKVEQMQATPARGEPDKLAIEARKTGFDEIYLPFRADQAQREASRCLKCGEHSVCEWTCPLHNHIPQWIELVKAGNIDAAVELSHQTNTLPEITGRVCPQDRLCEGACTIRDEHGAVTIGNIERYISDQALAKGWRPDLSHVTKVDKRVAIIGAGPAGLACADVLTRNGVGVTVYDRHPEIGGLLTFGIPSFKLDKSLLARRREIFSAMGIHFELNCEVGKDVSLDSLLEQYDAVFVGVGTYRSMKAGLPNEDAPGVYDALPFLIANTKQVMGLEELPEEPFINTAGLNVVVLGGGDTAMDCVRTALRHGASNVTCAYRRDEANMPGSKKEVKNAREEGANFEFNVQPVALELNEQGHVCGIRFLRTRLGEPDAQGRRRPVPVEGSEFVMPADAVIMAFGFNPHGMPWLESHGVTVDKWGRIIADVESQYRYQTTNPKIFAGGDAVRGADLVVTAMAEGRHAAQGIIDWLGVKSVKSH	5.28	1.34										
MNRIEHYHDWLRDAHAMEKQAESMLESMASRIDNYPELRARIEQHLSETKNQIVQLETILDRNDISRSVIKDSMSKMAALGQSIGGIFPSDEIVKGSISGYVFEQFEIACYTSLLAAAKNAGDTASIPTIEAILNEEKQMADWLIQNIPQTTEKFLIRSETDGVEAKK	4.867 ± 0.043	10.5 ± 1.5	4.24 ± 0.64	6.68 ± 0.67	4.5 ± 0.39	3.94 ± 0.3	3.17 ± 0.17	5.22 ± 0.1	4.14 ± 0.32	6.67 ± 0.1	5.2 ± 0.7	11.1 ± 0.76
MNRIYACPVADVPEGEALRIDTSPVIALFNVGGEFYAINDRCSHGNASMSEGYLEDDATVECPLHAASFCLKTGKALCLPATDPLTTYPVHVEGGDIFIDLPEAQP [P0ABW0]												2.53
MNRLPSSASALACSAHALNLIEKRTLDHEEMKALNREVIEYFKEHVNPGFLEYRKSVTAGGDYGAVEWQAGSLNTLVDTQGQEFIDCLGGFGIFNVGHRNPVVVSAVQNQLAKQPLHSQELLDPLRAMLAKTLAALTPGKLKYSFFCNSGTESVEAALKLAKAYQSPRGKFTFIATSGAFHGKSLGALSATAKSTFRKPFMPLLPGFRHVPFGNIEAMRTALNECKKTGDDVAAVILEPIQGEGGVILPPPGYLTAVRKLCDEFGALMILDEVQTGMGRTGKMFACEHENVQPDILCLAKALGGGVMPIGATIATEEVFSVLFDNPFLHTTTFGGNPLACAAALATINVLLEQNLPAQAEQKGDMLLDGFRQLAREYPDLVQEARGKGMLMAIEFVDNEIGYNFASEMFRQRVLVAGTLNNAKTIRIEPPLTLTIEQCELVIKAARKALAAMRVSVEEA	4.74 ± 0.26	1.06 ± 0.45	3.09 ± 0.83	0.385 ± 0.062	0.49 ± 0.12	0.289 ± 0.0059	0.378 ± 0.04	0.631 ± 0.033	0.848 ± 0.61	0.594 ± 0.085	0.667 ± 0.37	1.3 ± 0.8
